This is an account of results in US20150259426A1 (Novartis, published 2015).

Like-named read-outs stand apart in the source and are kept apart here.

For assay [1], the target named is T1, cynomolgus DR5-Fc fusion protein (cyno DR5 amino acids 56 to 213 fused with human IgG1 Fc) (cynomolgus; human). Briefly: SPR (Biacore), CM5 chip coated with cynomolgus DR5-Fc, 1 to 100 nM NB construct. In general terms: Surface plasmon resonance follows binding to a sensor surface in real time, without labels.
Assay [2] has as its target T2, short (182 amino acids) human DR5-Fc fusion protein (R&D Systems, catalogue #631-T2/CF) (human, UniProt O14763 56-210).
T2 construct: bought; not shown: Fc part of the bought fusion protein; not described
Briefly: SPR (Biacore), CM5 chip coated with human DR5-Fc, 1 to 100 nM NB construct.

Assay [3] concerns the target T3, cell-bound human DR5 (Colo205 and other human cell lines) (human, UniProt O14763 56-440). The experiment in a line: cell-based or functional assay.
Assay [4] deals with T3, cell-bound human DR5 (Colo205 and other …). Briefly: cell-based or functional assay. The source holds these as a separate data set.
The target in assay [5] is T4, DR5-61 (human DR5 residues 61 to 183, gp67DR5l61-s183-PH) (human).
T4 construct: expressed in SF9 cells, cleaved with PreScission protease
T4 chain: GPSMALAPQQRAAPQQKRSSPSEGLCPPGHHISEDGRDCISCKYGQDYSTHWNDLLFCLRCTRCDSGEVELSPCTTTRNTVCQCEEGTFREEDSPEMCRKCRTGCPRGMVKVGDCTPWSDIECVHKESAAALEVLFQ
Briefly: complex isolated by gel filtration, then crystallized.

Assay [6] deals with cynomolgus DR5 (construct used not stated) (cynomolgus). Briefly: SPR kinetics (Biacore), cynomolgus DR5.
Assay [7] has as its target T5, cell-bound cynomolgus DR5 (CHO-K1 cells transfected with the full length cynoDR5 gene) (cynomolgus).
T5 construct: whole, on cells
Briefly: FACS saturation binding, apparent KD, cell-bound cynomolgus DR5.

For assay [8], the target named is T3, cell-bound human DR5 (Colo205 and other …). Briefly: FACS saturation binding, apparent KD, cell-bound human DR5.
Assay [9] has the same target. The experiment in a line: cell-based or functional assay. This is another data set of the same source.
The target is the same in assay [10]. Briefly: cell-based or functional assay. This is another data set of the same source.
Assay [11] shares this target. Briefly: FACS, periplasmic extract on Colo205 cells, anti-myc detection.
Assay [12] concerns the target cynomolgus DR5 (construct used not stated) (cynomolgus). Briefly: SPR kinetics, cynomolgus DR5.
Assay [13] concerns the target T1, cynomolgus DR5-Fc fusion protein (cyno …). Briefly: ELISA, periplasmic extract, plate coated with cynomolgus DR5-Fc, anti-myc detection.
Assay [14] deals with T5, cell-bound cynomolgus DR5 (CHO-K1 cells …). Briefly: FACS, periplasmic extract on CHO-K1 cells expressing cynomolgus DR5, anti-myc detection. On the technique in general: A flow cytometer gives signals particle by particle.
For assay [15], the target named is T6, DR5-54 (human DR5 residues 54 to 183, gp67DR5a54-s183-PH) (human, UniProt O14763 54-183).
T6 construct: expressed in SF9 cells, cleaved with PreScission protease; the complex with 11H6 was treated with trypsin before crystallization
The experiment in a line: complex isolated by gel filtration, then crystallized. (SEC sorts molecules by how far they enter the pores of the column.)

B1: 10F1 tetra (tetravalent anti-DR5 NB construct) (other)
chain: EVQLVESGGGLVQPGGSLRLSCAASGFTFSRYWMYWVRQAPGKGLEWVSAINSGGGDTYYRDSVRGRFTISRDNFKNTLYLQMNSLKSEDTAVYYCAKAEGPPTFSLIRTMTVDPGAQGTQVTVSSGGGGSGGGGSGGGGSGGGGSGGGGSGGGGSGGGGSEVQLVESGGGLVQPGGSLRLSCAASGFTFSRYWMYWVRQAPGKGLEWVSAINSGGGDTYYRDSVRGRFTISRDNFKNTLYLQMNSLKSEDTAVYYCAKAEGPPTFSLIRTMTVDPGAQGTQVTVSSGGGGSGGGGSGGGGSGGGGSGGGGSGGGGSGGGGSEVQLVESGGGLVQPGGSLRLSCAASGFTFSRYWMYWVRQAPGKGLEWVSAINSGGGDTYYRDSVRGRFTISRDNFKNTLYLQMNSLKSEDTAVYYCAKAEGPPTFSLIRTMTVDPGAQGTQVTVSSGGGGSGGGGSGGGGSGGGGSGGGGSGGGGSGGGGSEVQLVESGGGLVQPGGSLRLSCAASGFTFSRYWMYWVRQAPGKGLEWVSAINSGGGDTYYRDSVRGRFTISRDNFKNTLYLQMNSLKSEDTAVYYCAKAEGPPTFSLIRTMTVDPGAQGTQVTVSS
notes: four VHH units in one chain joined by GlySer linkers; not shown: C-terminal c-myc/His6 tag from vector pAX51
B1 had a Kd in assay [1] of 0.022 nM. Also, the Kd in [2] was found to be 0.0039 nM. Further, in assay [3], the “EC50, caspase 3/7 in Colo205 tumor after a single dose in mice, indirect response model” value is 0.365 ng/mg tissue. In addition, in [4], the “IC50, cell survival, 184A1” value is at least 20 nM; the “IC50, cell survival, A549” value was at least 20 nM; the “IC50, cell survival, ARPE-19” value is at least 20 nM; the “IC50, cell survival, BxPC-3” value is 0.003 nM. Moreover, in assay [4], the “IC50, cell survival, Colo205” value stood at 0.002 nM; the “IC50, cell survival, H226” value turned out to be 0.024 nM; the “IC50, cell survival, H2052” value came out at 0.004 nM; the “IC50, cell survival, H2122” value came to 0.001 nM. Also, in [4], the “IC50, cell survival, HAAE-1” value was at least 20 nM; the “IC50, cell survival, Huvec” value was at least 20 nM; the “IC50, cell survival, Jurkat” value was determined as 0.003 nM; the “IC50, cell survival, M30” value was at least 20 nM. In assay [4], the “IC50, cell survival, Malme-3” value is at least 20 nM; the “IC50, cell survival, MiaPaCa-2” value was determined as 0.028 nM; the “IC50, cell survival, Molt4” value was found to be 0.002 nM; the “IC50, cell survival, Panc-1” value was determined as 0.009 nM. Moreover, the “IC50, cell survival, WI-38” value in assay [4] was at least 20 nM.

B2: 4E6 hu, pAX111-4E6 (monomeric NB construct for crystallography) (VHH)
VHH: EVQLLESGGGLVQPGGSLRLSCAASGRTFGSIRVGWFRQAPGKGREFVSAINRNDGTTYYADSVKGRFTISRDNSKNTVYLQMNSLRPEDTAVYYCAAGLQYNRAADRVPVGAVYWGQGTLVTVSS
Turning to B2, the binding result in assay [5] was “binds”.

B3: 4E6-hx (monovalent; humanized FR regions of 4E6-Hu with the CDR3 of 4E6), produced in E. coli (VHH)
VHH: EVQLLESGGGLVQPGGSLRLSCAASGRTFGSIRVGWFRQAPGKGREFVSAINRNDGTTYYADSVKGRFTISRDNSKNTVYLQMNSLRPEDTAVYYCAAGLQYNRSADRVPVGAVYWGQGTLVTVSS
For B3, the Kd in assay [6] stood at 3.4 nM; in assay [7], 7.1 nM; in assay [8] it was 0.34 nM.

B4: 11H6-hu tetra (11H6 hu tetramer) (VHH)
chain: EVQLLESGGGLVQPGGSLRLSCAASGTFDKINNMGWYRQAPGKQRDLVAQITPGGITDYADSVKGRFTISRDNSKNTLYLQMNSLRPEDTAVYYCNAEILKRAYIDVYVNYWGQGTLVTVSSGGGGSGGGGSGGGGSGGGGSGGGGSGGGGSGGGGSEVQLLESGGGLVQPGGSLRLSCAASGTFDKINNMGWYRQAPGKQRDLVAQITPGGITDYADSVKGRFTISRDNSKNTLYLQMNSLRPEDTAVYYCNAEILKRAYIDVYVNYWGQGTLVTVSSGGGGSGGGGSGGGGSGGGGSGGGGSGGGGSGGGGSEVQLLESGGGLVQPGGSLRLSCAASGTFDKINNMGWYRQAPGKQRDLVAQITPGGITDYADSVKGRFTISRDNSKNTLYLQMNSLRPEDTAVYYCNAEILKRAYIDVYVNYWGQGTLVTVSSGGGGSGGGGSGGGGSGGGGSGGGGSGGGGSGGGGSEVQLLESGGGLVQPGGSLRLSCAASGTFDKINNMGWYRQAPGKQRDLVAQITPGGITDYADSVKGRFTISRDNSKNTLYLQMNSLRPEDTAVYYCNAEILKRAYIDVYVNYWGQGTLVTVSS
Consider B4, for which, in assay [9], the “IC50, cell survival, A549” value is over 10 nM; the “IC50, cell survival, BxPC-3” value amounted to 0.0154 nM; the “IC50, cell survival, Colo205” value stood at 0.0036 nM; the “IC50, cell survival, H226” value came out at 0.172 nM. In addition, in assay [9], the “IC50, cell survival, H2122” value was found to be 0.0041 nM; the “IC50, cell survival, Jurkat (72)” value was found to be 0.0007 nM; the “IC50, cell survival, M30” value is over 10 nM; the “IC50, cell survival, MiaPaCa-2” value was determined as 0.0117 nM. Also, in assay [9], the “IC50, cell survival, Panc-1” value was found to be 0.232 nM and the “IC50, cell survival, T24” value was determined as 0.0222 nM. For the same molecule, in [10], the “IC50, cell survival, Colo205” value stood at 0.02 nM and the “IC50, cell survival, Jurkat” value worked out at 0.016 nM.

B5: 11H6 (monomeric anti-DR5 NB construct) (VHH)
VHH: EVQLVESGGGLVQPGGSLRLSCAASGTFDKINNMGWYRQAPGKQRDLVAQITPGGITDYADSVKGRFTISRDNAKDTMYLQMNSLKPEDTAVYFCNAEILKRAYIDVYVNYWGQGTQVTVSS
notes: llama VHH; periplasmic extract or purified monovalent material from E. coli; also called 11H6 parent; wild type 11H6; not shown: C-terminal c-myc tag and (His)6 tag coded by the vector
With B5, the Kd turned out to be 9200 nM in [1] and 320 nM in assay [12]. In addition, the mean count fluorescence in assay [11] came out at 723; in assay [14] it was 292. In assay [13], this molecule came in with an ABS405 nm of 0.133 ABS405 nm.

B6: 11H6 hu, pAX100-11H6 (monomeric NB construct for crystallography) (VHH)
VHH: EVQLLESGGGLVQPGGSLRLSCAASGTFDKINNMGWYRQAPGKQRDLVAQITPGGITDYADSVKGRFTISRDNSKNTLYLQMNSLRPEDTAVYYCNAEILKRAYIDVYVNYWGQGTLVTVSS
notes: the complex with DR5-54 was treated with trypsin before crystallization
Take B6: the binding result in [15] is listed as “binds”.

B7: 11H6-hu (monovalent humanized variant of 11H6) (VHH)
VHH: EVQLLESGGGLVQPGGSLRLSCAASGTFDKINNMGWYRQAPGKQRDLVAQITPGGITDYADSVKGRFTISRDNSKNTLYLQMNSLRPEDTAVYYCNAEILKRAYIDVYVNYWGQGTLVTVSS
notes: purified monovalent material
The molecule B7 had a Kd in [12] of 170 nM.
